Reference: FireProtDB (doi:10.1021/bi060038+)

B1: Phosphocarrier protein HPr, P08877 (parent)
chain: MAQKTFKVTADSGIHARPATVLVQTASKYDADVNLEYNGKTVNLKSIMGVMSLGIAKGAEITISASGADENDALNALEETMKSEGLGE

Variants of: B1
Conditions: Bacillus subtilis (strain 168), pH 7, CD, sodium phosphate 10 mM, reversible: Yes, structure 2HPR, whole UniProt chain shown; for ddG of mutation (higher = less stable) / denaturant m value / unfolding free energy: 25 °C; for Tm / change of melting temperature, mutant - wild type (higher = more stable) / unfolding enthalpy (van 't Hoff): Thermal

Variant | ddG of mutation (higher = less stable) (GdnHCl) | denaturant m value (GdnHCl) | unfolding free energy (GdnHCl) | Tm | change of melting temperature, mutant - wild type (higher = more stable) | unfolding enthalpy (van 't Hoff) | ddG of mutation (higher = less stable) (Urea) | denaturant m value (Urea) | unfolding free energy (Urea)
MRQKTFKVTADSGIHARPATVLVQTASKYDADVNLEYNGKTVNLKSIMGVMSLGIAKGAEITISASGADEEDALNALEETMKSEGLGE | -1.5 kcal/mol | 3.39 kcal/mol/M | 4.9 kcal/mol | 83.1 °C | 10.1 °C | 91 kcal/mol |  |  | 
MKQKTFKVTADSGIHARPATVLVQTASKYDADVNLEYNGKTVNLKSIMGVMSLGIAKGAEITISASGADEEDALNALEETMKSEGLGE | -1.1 kcal/mol | 3.37 kcal/mol/M | 4.5 kcal/mol | 79.6 °C | 6.6 °C | 85 kcal/mol | -1.1 kcal/mol | 0.95 kcal/mol/M | 6.1 kcal/mol
